Key:
Assay in all cases: ELISA
interleukin 6 (IL-6) = interleukin 6 (IL-6) (Homo sapiens (assumed; ), UniProt P05231)
[1] = molecular target: recombinant SARS-CoV nucleocapsid protein (SCoV-N), His6-tagged (SARS-CoV, strain CUHK-W1, UniProt P59595)
[2] = molecular target: recombinant interleukin 11 (IL-11) (Homo sapiens (assumed; ), UniProt P20809)
Sequence of recombinant interleukin 11 (IL-11) (P20809 22-199): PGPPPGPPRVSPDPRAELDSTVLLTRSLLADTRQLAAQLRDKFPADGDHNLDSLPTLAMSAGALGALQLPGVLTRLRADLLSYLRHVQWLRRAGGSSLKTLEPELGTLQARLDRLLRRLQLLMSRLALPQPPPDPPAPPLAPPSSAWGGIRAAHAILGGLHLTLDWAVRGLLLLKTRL

Sequence of interleukin 6 (IL-6) (P05231 30-212): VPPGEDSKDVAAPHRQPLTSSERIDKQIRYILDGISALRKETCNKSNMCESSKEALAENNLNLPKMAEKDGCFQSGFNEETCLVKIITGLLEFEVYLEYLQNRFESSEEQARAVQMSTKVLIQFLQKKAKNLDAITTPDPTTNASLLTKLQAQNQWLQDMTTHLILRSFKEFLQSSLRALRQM
Sequence of recombinant SARS-CoV nucleocapsid protein (SCoV-N), His6-tagged (P59595 whole entry): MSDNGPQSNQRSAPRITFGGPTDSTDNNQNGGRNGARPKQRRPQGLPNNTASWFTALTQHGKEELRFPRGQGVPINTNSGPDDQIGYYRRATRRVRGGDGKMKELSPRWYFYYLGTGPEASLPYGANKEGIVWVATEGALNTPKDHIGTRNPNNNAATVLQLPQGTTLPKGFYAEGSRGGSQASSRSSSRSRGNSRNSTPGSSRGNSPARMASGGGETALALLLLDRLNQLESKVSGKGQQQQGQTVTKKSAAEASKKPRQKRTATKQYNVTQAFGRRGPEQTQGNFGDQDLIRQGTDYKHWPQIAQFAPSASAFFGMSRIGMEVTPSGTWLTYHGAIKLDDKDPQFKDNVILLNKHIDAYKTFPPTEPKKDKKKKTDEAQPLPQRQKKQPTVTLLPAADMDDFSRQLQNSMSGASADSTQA

B1: anti-N scFv L9N01 (scFv-phage clone) (scFv, V domains shown)
VH: GEAAAVQGTEVVKPGASVKLSCKASGYIFTSYDIDWVRQTPEQGLEWIGWIFPGEGSTEYNEKFKGRATLSVDKSSSTAYMELTRLTSEDSAVYFCARGDYYRRYFDLWGQGTTVTVSS
VL: DIELTQSPAIMSASPGERVTMTCSASSSIRYIYWYQQKPGSSPRLLIYDTSNVAPGVPFRFSGSGSGTSYSLTINGMEAEDAATYYCQEWSGYPYTFGGGTKLELK
Interleukin 6 (IL-6)
  binding result: no binding
[1]
  binding result: binds
[2]
  binding result: binds

Reference: PMC7092895 (Biochemical and Biophysical Research Communications, 2005)
